Values joined by “and” are separate entries in the source; they are usually repeats but may differ in a detail not shown here. Identical values can stand only once. Each block holds one binder with its values, some of them ahead of it. No end group written: not given here.
Legend:
[1] = target: T1, Hu IL-21 Peptide A1751 (conjugated to ovalbumin) (human, conjugated to ovalbumin); test: Western blot
T1 construct: also called peptide #3 N97-C122 conjugated to ovalbumin
T1 peptide: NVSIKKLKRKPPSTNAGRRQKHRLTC
Method: (§1) For Western blots, the non-specific sites on the membranes were blocked with a buffer containing 20 mM Tris, pH 7.4, 0.5 mM EDTA, 0.5% IGEPAL CA-630, 150 mM NaCl, 0.25% gelatin, and 1% casein hydrolysate blocking solution (Western Blocking Reagent, Roche Diagnostics, Inc., Basel Switerzerland) (Blocking Buffer). The membranes were then incubated for 2 hrs at room temperature with purified monoclonal antibody (10 ng/ml or 100 ng/ml) in the Blocking Buffer followed by a 2 hr incubation with peroxidase conjugated donkey anti-human IgG (Jackson Laboratories, Bar Harbor, Me.). The membranes were washed 5 times with the Tris/EDTA/IGEPAL/NaCl/gelatin Blocking buffer which lacked the casein hydrolysate and developed with SUPERSIGNAL™ DuraWest Luminol/Enhancer/Peroxidase Solution (Pierce, Rockford, Ill.) for chemoluminescence detection. The blots were visualized using X-ray film based standard methods.

[2] = target: T2, Hu IL-21 Peptide A1750 (conjugated to ovalbumin) (human, also: chemically conjugated to ovalbumin); test: Western blot
T2 construct: also called peptide #2 N54-C71 conjugated to ovalbumin
T2 peptide: NDLVPEFLPAPEDVETNC
Method: as §1

Recombinant human IL-9 = target: T3, Recombinant human IL-9 (human, UniProt P15248 19-144); test: Western blot
T3 construct: also called Hu IL-9

Recombinant human IL-2 = target: T4, Recombinant human IL-2 (human, UniProt P60568 21-153); test: Western blot
T4 construct: also called Hu IL-2

Recombinant human IL-4 = target: T5, Recombinant human IL-4 (human, UniProt P05112 25-153); test: Western blot
T5 construct: also called Hu IL-4
T5 sequence (looked up): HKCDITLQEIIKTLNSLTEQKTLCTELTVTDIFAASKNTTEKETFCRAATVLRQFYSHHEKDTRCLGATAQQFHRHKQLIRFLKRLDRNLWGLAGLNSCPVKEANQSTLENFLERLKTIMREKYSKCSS

Recombinant human IL-15 = target: T6, Recombinant human IL-15 (human, UniProt P40933 49-162); test: Western blot
T6 construct: also called Hu IL-15

Recombinant human IL-7 = target: T7, Recombinant human IL-7 (human, UniProt P13232 26-177); test: Western blot
T7 construct: also called Hu IL-7
T7 sequence (looked up): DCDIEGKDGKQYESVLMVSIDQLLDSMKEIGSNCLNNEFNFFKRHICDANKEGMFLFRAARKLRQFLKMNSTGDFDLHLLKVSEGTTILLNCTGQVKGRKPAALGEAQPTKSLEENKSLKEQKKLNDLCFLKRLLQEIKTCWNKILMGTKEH

[3] = target: T8, Recombinant mutant human IL-21 (human, UniProt Q9HBE4 30-162, limits assumed); test: direct ELISA
T8 construct: also called IL-21 mutant; mutant human IL-21 protein
Method: (§2) Wells were blocked with 200 μL/well of Blocking Buffer (PBS-Tween plus 1% w/v bovine serum albumin (BSA)) for 1 hour, after which the plates were washed twice with Wash Buffer. Antibody dilutions were prepared in 5% fetal bovine serum (FBS)/Iscove's Modified Dulbecco's Media (IMDM) medium and adjusted to 1 μg/ml. […] Following 1 hour incubation at ambient temperature, the wells were aspirated and the plates washed twice as described above. Horseradish peroxidase (HRP) labeled Goat anti Mouse IgG, Fc specific or Goat anti Rat IgG, Fc specific, or Goat anti Human IgG, Fc specific (Jackson ImmunoResearch Laboratories, West Grove, Pa.) at a dilution of 1:5000 with 5% FBS/IMDM medium was then added to each well, 100 μL/well, and the plates incubated at ambient temperature for 1 hour. After removal of unbound HRP conjugated antibody, the plates were washed five times, 100 μL /well of tetra methyl benzidine (TMB) (BioFX Laboratories, Owings Mills, Md.) added to each well and the plates incubated for 3 minutes at ambient temperature. Color development was stopped by the addition of 100 μL /well of 450 nm TMB Stop Reagent (BioFX Laboratories, Owings Mills, Md.) and the absorbance values of the wells read on a Molecular Devices Spectra MAX 340 instrument at 450 nm.

[4] = target: T9, Human IL-21 peptide #3 (N97-C122) (human); test: direct ELISA
T9 peptide: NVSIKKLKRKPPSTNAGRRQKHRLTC
Method: as §2

[5] = target: T10, Human IL-21 peptide #2 (N54-C71) (human); test: direct ELISA
T10 peptide: NDLVPEFLPAPEDVETNC
Method: as §2

[6] = target: T11, Human IL-21 peptide #1 (pyr30-K50) (human, N-terminal pyroGlu); test: direct ELISA
T11 construct: coated on ELISA plates; also called Peptide 1 N-Term
T11 peptide: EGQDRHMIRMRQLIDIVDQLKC
Method: as §2

[7] = target: T12, Recombinant cynomolgus IL-21 (cynomolgus monkey, UniProt Q9HBE4 30-162 (human entry), limits assumed); test: cell-based or functional assay
Recombinant human IL-21 [8] = target: T13, Recombinant human IL-21 (human, UniProt Q9HBE4 30-162); test: cell-based or functional assay
Recombinant human IL-21 [9] = target: T13, Recombinant human IL-21; test: cell-based or functional assay; remark: listed apart in the source
Recombinant human IL-21 [10] = target: T13, Recombinant human IL-21; test: cell-based or functional assay; remark: listed apart in the source
[11] = target: T14, Hu IL-21 Peptide A1752 (conjugated to ovalbumin) (human, conjugated to ovalbumin); test: Western blot
T14 construct: also called peptide #4 C125-S153 conjugated to ovalbumin
Method: as §1

Recombinant murine IL-21 = Recombinant murine IL-21 (mouse, UniProt Q9ES17 18-146); test: Western blot
Method: as §1

[12] = target: T15, Human IL-21 peptide #4 (C125-S153) (human); test: direct ELISA
T15 construct: also called Peptide 4 C-Term
Method: as §2

Recombinant human IL-21 [13] = target: T13, Recombinant human IL-21; test: cell-based or functional assay; remark: listed apart in the source
[14] = target: T12, Recombinant cynomolgus IL-21; test: Western blot
Method: as §1

T4 sequence (P60568 21-153 limits assumed): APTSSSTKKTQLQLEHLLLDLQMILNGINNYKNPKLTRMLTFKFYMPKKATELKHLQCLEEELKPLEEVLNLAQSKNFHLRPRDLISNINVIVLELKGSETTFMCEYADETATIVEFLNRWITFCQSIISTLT
T3 sequence (P15248 19-144 limits assumed): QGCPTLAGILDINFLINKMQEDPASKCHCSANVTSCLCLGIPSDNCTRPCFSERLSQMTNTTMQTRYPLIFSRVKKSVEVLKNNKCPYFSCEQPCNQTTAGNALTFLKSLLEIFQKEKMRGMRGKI
T8 sequence (Q9HBE4 other isoform, or with tags, fused parts or gaps mutant limits assumed): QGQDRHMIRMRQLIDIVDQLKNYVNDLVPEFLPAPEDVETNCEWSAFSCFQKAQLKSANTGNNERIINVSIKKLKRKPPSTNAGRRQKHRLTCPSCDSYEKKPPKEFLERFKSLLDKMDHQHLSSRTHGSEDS
T12 sequence (Q9HBE4 other isoform, or with tags, fused parts or gaps limits assumed): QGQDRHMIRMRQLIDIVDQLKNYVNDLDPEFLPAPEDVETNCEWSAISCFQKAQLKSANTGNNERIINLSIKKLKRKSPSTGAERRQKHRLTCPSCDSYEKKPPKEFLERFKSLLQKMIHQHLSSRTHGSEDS
T13 sequence (Q9HBE4 30-162 limits assumed): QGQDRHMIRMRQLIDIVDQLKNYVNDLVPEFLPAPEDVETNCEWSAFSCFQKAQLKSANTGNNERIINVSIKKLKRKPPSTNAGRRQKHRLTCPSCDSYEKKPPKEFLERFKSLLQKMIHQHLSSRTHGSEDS
T6 sequence (P40933 49-162 limits assumed): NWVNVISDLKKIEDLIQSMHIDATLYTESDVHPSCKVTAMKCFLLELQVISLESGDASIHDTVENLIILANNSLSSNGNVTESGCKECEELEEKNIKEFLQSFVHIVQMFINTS
T14 sequence (peptide, as listed by the source): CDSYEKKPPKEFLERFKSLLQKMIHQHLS

- binding result [1]: no binding (tested: 10 or 100 ng/ml mAb)
- binding result [2]: no binding (tested: 10 or 100 ng/ml mAb)
- binding result (Recombinant human IL-9): no binding
- binding result (Recombinant human IL-2): no binding
- binding result (Recombinant human IL-4): no binding
- binding result (Recombinant human IL-15): no binding
- binding result (Recombinant human IL-7): no binding
- binding result [3]: no binding (tested: 1 ug/ml mAb)
- binding result [4]: no binding (tested: 1 ug/ml mAb)
- binding result [5]: no binding (tested: 1 ug/ml mAb)
- binding result [6]: no binding (tested: 1 ug/ml mAb)
- Cyno IL-21 IC50 ([cIL-21] = 100 pM), STAT-Luciferase assay [7]: 23 ng/mL and 156 pM
- IC50 (pM), 24 hr STAT-Luciferase assay, Expt #1 (Recombinant human IL-21 [8]): 2400 pM
- IC50 (pM), STAT3-phosphorylation assay, Expt #1 (Recombinant human IL-21 [9]): 59 pM
- IC50 (nM), B cell proliferation assay (anti-CD40 + 3.21 nM IL-21) (Recombinant human IL-21 [10]): 4.75 nM
B1: Human anti-human IL-21 monoclonal antibody 366.552.11 (antibody, V domains shown)
VH: QVQLQESGPGLVKPSETLSLTCTVSGGSISSDFWGWIRQPPGKGLEWIGYISSRGSTNYNPSLKRRVTISVDTSRNQFSLKLSSVTAADTAVYYCARSAGVTDFDFWGQGTLVTVSS
VL: DIQMTQSPSSVSASVGDRVTITCRASQGISSWLAWYQHKPGKAPKLLIYVASSLQSGVPSRFSGSGSGTDFTLTISSLQPEDFATYYCQQANSFPLTFGGGTKVEIK
notes: Hybridoma antibody, ATCC PTA-8787; isotype printed as IgG; also called 366.552.11.31

- binding result [1]: no binding (tested: 10 or 100 ng/ml mAb)
- binding result [11]: no binding (tested: 10 or 100 ng/ml mAb)
- binding result [2]: no binding (tested: 10 or 100 ng/ml mAb)
- binding result (Recombinant murine IL-21): no binding (tested: 10 or 100 ng/ml mAb)
- binding result (Recombinant human IL-9): no binding
- binding result (Recombinant human IL-2): no binding
- binding result (Recombinant human IL-4): no binding
- binding result (Recombinant human IL-15): no binding
- binding result (Recombinant human IL-7): no binding
- binding result [3]: binds
- binding result [4]: no binding (tested: 1 ug/ml mAb)
- binding result [5]: no binding (tested: 1 ug/ml mAb)
- binding result [6]: no binding (tested: 1 ug/ml mAb)
- binding result [12]: no binding (tested: 1 ug/ml mAb)
- % IgD-low, CD138+ Plasma Cells, antagonist:ligand 0.16:1 (Recombinant human IL-21 [13]): 52.1%
- % IgD-low, CD138+ Plasma Cells, antagonist:ligand 0.6:1 (Recombinant human IL-21 [13]): 41.4%
- % IgD-low, CD138+ Plasma Cells, antagonist:ligand 2.5:1 (Recombinant human IL-21 [13]): 20.2%
- % IgD-low, CD138+ Plasma Cells, antagonist:ligand 10:1 (Recombinant human IL-21 [13]): 15.4%
- Cyno IL-21 IC50 ([cIL-21] = 100 pM), STAT-Luciferase assay [7]: 15 ng/mL and 100 pM
- IC50 (pM), STAT3-phosphorylation assay, Expt #1 (Recombinant human IL-21 [9]): 210 pM
- IC50 (nM), B cell proliferation assay (anti-CD40 + 3.21 nM IL-21) (Recombinant human IL-21 [10]): 0.71 nM
B2: Human anti-human IL-21 monoclonal antibody 366.328.10 (antibody, V domains shown)
VH: EVQLVESGGGLVKPGGSLRLSCAASGFIFSSYSMNWVRQAPGKGLEWVSSITSGSYYIHYADSVKGRFTISRDNAKNSLYLQMNSLRAEDTAVYYCVRERGWGYYGMDVWGQGTTVTVSS
VL: AIQLTQSPSSLSASVGDRVTITCRASQDIDSALAWYQQKPGKAPKILIHDASSLESGVPSRFSGSGSGTDFTLTISSLQPEDFATYYCQQFNSYPYTFGQGTKLEIK
notes: Hybridoma antibody, ATCC PTA-8789; isotype printed as IgG

- binding result [1]: no binding (tested: 10 or 100 ng/ml mAb)
- binding result [14]: binds
- binding result [11]: binds
- binding result [2]: no binding (tested: 10 or 100 ng/ml mAb)
- binding result (Recombinant human IL-9): no binding
- binding result (Recombinant human IL-2): no binding
- binding result (Recombinant human IL-4): no binding
- binding result (Recombinant human IL-15): no binding
- binding result (Recombinant human IL-7): no binding
- binding result [3]: no binding (tested: 1 ug/ml mAb)
- binding result [4]: no binding (tested: 1 ug/ml mAb)
- binding result [5]: no binding (tested: 1 ug/ml mAb)
- binding result [6]: no binding (tested: 1 ug/ml mAb)
- binding result [12]: binds
B3: Human anti-human IL-21 monoclonal antibody 362.75.1.1 (antibody, V domains shown)
VH: QLQLQESGPGLVKPSETLSLTCTVSGGSISSRTYRWGWIRQPPGKELEWIGSIYYRGSTFYNPSLKSRVTVSVDTSKNQFSLKLSSVTAADTAVYYCARQSGYSGYDWFDPWGQGTLVTVSS
VL: EIVLTQSPATLSLSPGERATLSCRASQSVSSFLAWYQQKPGQAPRLLIYDASNRATGIPARFSGSGSGTDFTLTISSLEPEDFAVYYCQQRSNWITFGQGTRLEIK
notes: Hybridoma antibody, ATCC PTA-8791; isotype printed only as IgG
